Results from publication PMC12653191 (Journal of Fungi, 2025).

Molecular target: T1, Candida glabrata Pbn1 (C. glabrata ATCC 2001, UniProt Q6FX62 1-416, N-glycosylation at N35, N319 and N365)
T1 construct: Pbn1, auxiliary subunit of GPI mannosyltransferase I, Candida glabrata ATCC 2001, UniProt Q6FX62, full length (416 amino acids); residues 2-408 are modelled in the structure; also called auxiliary subunit of GPI-MT-I; source: S. cerevisiae INVSc1, co-expressed with Gpi14, purified (Strep-Tactin, SEC); not shown: Twin-Strep II, N-terminal, kept
T1 sequence (looked up): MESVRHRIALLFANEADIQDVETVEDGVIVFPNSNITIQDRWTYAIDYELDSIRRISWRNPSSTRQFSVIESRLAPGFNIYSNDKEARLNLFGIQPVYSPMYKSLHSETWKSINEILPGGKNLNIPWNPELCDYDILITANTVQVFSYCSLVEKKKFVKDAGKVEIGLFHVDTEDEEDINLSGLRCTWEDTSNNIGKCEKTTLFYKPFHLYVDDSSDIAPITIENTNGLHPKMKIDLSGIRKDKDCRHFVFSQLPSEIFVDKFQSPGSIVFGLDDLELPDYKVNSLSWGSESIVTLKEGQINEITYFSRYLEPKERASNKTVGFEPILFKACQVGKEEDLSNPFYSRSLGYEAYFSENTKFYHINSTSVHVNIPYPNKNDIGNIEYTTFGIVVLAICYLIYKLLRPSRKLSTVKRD
Test: cryo-EM structure; Gpi14-Pbn1 complex co-expressed in S. cerevisiae, purified by Strep-Tactin on Pbn1 and SEC in 20 mM Hepes pH 7.4, 150 mM NaCl, 0.02% GDN; ~22 mg/mL; endogenous Dol-P-Man bound
Settings: both partners purified

B1: Candida glabrata Gpi14 (enzyme, C. glabrata ATCC 2001, UniProt Q6FXQ5 1-431, looked up)
chain: MFKLGTIGLLSLAVLLRIAFFLFGVYQDEHFTVKYTDIDYQVFNDAAWFVAHRKSPYNRDTYRYTPLLSWLLLPNHMIPWFHFGKLIFVLCDLATGVLILQMLKKLKSKYRYGTDRMTIMAAIWLLNPMVITISTRGNAESVLCFLILSFLYCFLCEQYLLGGLLFGLSIHFKIYPIIYALPIAIYVAAAHYNKTQSVFKSSFKLFLVGFSTLIVLILLTVFMYMLYGDKFIDQTYLYHIYRTDHRHNFSVWNMLLYFNSALPKTSELSKFVFLPQMIIVLAISLTQLRRPSSFPLLCNVLFLETFAFVTFNKVCTSQYFIWYLIFLPFVLYNTRISMRRGIVMLVVWVATQALWLRQGYLLEFEGQNVFYPGLFCASVGFFVSNAWILGQFIEDTIIQNDYVYRIEPSESRSKDSAVIDKPAIAKTEKAE
notes: Gpi14, GPI mannosyltransferase I catalytic subunit, Candida glabrata ATCC 2001, UniProt Q6FXQ5, full length (431 amino acids); residues 2-408 are modelled in the structure; also called catalytic subunit of GPI-MT-I; source: S. cerevisiae INVSc1, co-expressed with Pbn1, purified (Strep-Tactin via Pbn1, SEC)
- stoichiometry N: 1
